{"source": "paper PMC7954794", "about": "“Protein context shapes the specificity of SH3 domain-mediated interactions in vivo” (Nature Communications, 2021)", "molecules": {"B1": {"name": "BOI1 (protein, UniProt P38041 1-980, looked up)", "BEM1-interacting protein 1": "MSLEGNTLGKGAKSFPLYIAVNQYSKRMEDELNMKPGDKIKVITDDGEYNDGWYYGRNLRTKEEGLYPAVFTKRIAIEKPENLHKSPTQESGNSGVKYGNLNDSASNIGKVSSHQQENRYTSLKSTMSDIDKALEELRSGSVEQEVSKSPTRVPEVSTPQLQDEQTLIQEKTRNEENTTHDSLFSSTADLNLSSESLKNISKSNISTKSLEPSSESVRQLDLKMAKSWSPEEVTDYFSLVGFDQSTCNKFKEHQVSGKILLELELEHLKELEINSFGIRFQIFKEIRNIKSAIDSSSNKLDADYSTFAFENQAAQLMPAATVNRDEIQQQISSKCNKLSSESSDRKSSSVTTELQRPSSVVVNPNFKLHDPAEQILDMTEVPNLFADKDIFESPGRAPKPPSYPSPVQPPQSPSFNNRYTNNNARFPPQTTYPPKNKNPTVYSNGLIPNSSTSSDNSTGKFKFPAMNGHDSNSRKTTLTSATIPSINTVNTDESLPAISNISSNATSHHPNRNSVVYNNHKRTESGSSFVDLFNRISMLSPVKSSFDEEETKQPSKASRAVFDSARRKSSYGHSRDASLSEMKKHRRNSSILSFFSSKSQSNPTSPTKQTFTIDPAKMTSHSRSQSNSYSHARSQSYSHSRKHSLVTSPLKTSLSPINSKSNIALAHSETPTSSNNKEAVSQPSEGKHKHKHKHKSKHKHKNSSSKDGSSEEKSKKKLFSSTKESFVGSKEFKRSPSELTQKSTKSILPRSNAKKQQTSAFTEGIRSITAKESMQTADCSGWMSKKGTGAMGTWKQRFFTLHGTRLSYFTNTNDEKERGLIDITAHRVLPASDDDRLISLYAASLGKGKYCFKLVPPQPGSKKGLTFTEPRVHYFAVENKSEMKAWLSAIIKATIDIDTSVPVISSYATPTIPLSKAQTLLEEARLQTQLRDAEEEEGRDQFGWDDTQNKRNSNYPIEQDQFETSDYLESSAFEYPGGRL"}}, "system": "Abp1 PPIs", "assay": "DHFR-PCA of Abp1 SH3-swapped baits (Fig. 2B-D, S2C, S2F);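 as to Protein-protein interaction distance between Abp1 SH3-swapped baits, to ABP1: Euclidean distance between DHFR-PCA score profiles of the baits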;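 as to Protein-protein interaction distance between Abp1 SH3-swapped baits, to BEM1-2: Euclidean distance between DHFR-PCA score profiles of the baits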;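 as to Protein-protein interaction distance between Abp1 SH3-swapped baits, to BOI1: Euclidean distance between DHFR-PCA score profiles of the baits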;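 as to Protein-protein interaction distance between Abp1 SH3-swapped baits, to BZZ1-1: Euclidean distance between DHFR-PCA score profiles of the baits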", "format": "cell-based, Saccharomyces cerevisiae", "procedure,_shortened": "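Yeast DHFR-PCA in which Abp1 baits, carrying their SH3 replaced by CRISPR–Cas9 with one of 27 yeast SH3s or human CTTN, HCLS1 or DBNL SH3s, were mated against 575 SH3-associated DHFR F[3] preys plus 40 negative controls. Four tests were run per PPI. Diploids were selected twice (48 h, 30 °C), then grown 4 days on PCA selection media.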", "key": {"[1]": {"conditions": "number of PPIs, difference, Abp1 SH3-swapped with the listed SH3, Fig2D,S2F"}}, "data": [{"molecule": "B1", "values": [{"measurement": "Protein-protein interaction distance between Abp1 SH3-swapped baits, to ABP1", "setting": "Abp1 bait with swapped SH3, distance to bait with ABP1 SH3, sheet Fig2C", "value": 11.59}, {"measurement": "Protein-protein interaction distance between Abp1 SH3-swapped baits, to BBC1", "setting": "distance to Abp1 bait with BBC1 SH3, sheet Fig2C", "value": 9.448}, {"measurement": "Protein-protein interaction distance between Abp1 SH3-swapped baits, to BEM1-1", "setting": "distance to Abp1 bait with BEM1-1 SH3, sheet Fig2C", "value": 8.19}, {"measurement": "Protein-protein interaction distance between Abp1 SH3-swapped baits, to BEM1-2", "setting": "distance to Abp1 bait with BEM1-2 SH3, sheet Fig2C", "value": 28.06}, {"measurement": "Protein-protein interaction distance between Abp1 SH3-swapped baits, to BOI1", "setting": "distance to Abp1 bait with BOI1 SH3, sheet Fig2C", "value": 0.00}, {"measurement": "Protein-protein interaction distance between Abp1 SH3-swapped baits, to BOI2", "setting": "distance to Abp1 bait with BOI2 SH3, sheet Fig2C", "value": 6.71}, {"measurement": "Protein-protein interaction distance between Abp1 SH3-swapped baits, to BUD14", "setting": "distance to Abp1 bait with BUD14 SH3, sheet Fig2C", "value": 11.14}, {"measurement": "Protein-protein interaction distance between Abp1 SH3-swapped baits, to BZZ1-1", "setting": "distance to Abp1 bait with BZZ1-1 SH3, sheet Fig2C", "value": 8.863}, {"measurement": "Protein-protein interaction distance between Abp1 SH3-swapped baits, to BZZ1-2", "setting": "distance to Abp1 bait with BZZ1-2 SH3, sheet Fig2C", "value": 6.782}, {"measurement": "Protein-protein interaction distance between Abp1 SH3-swapped baits, to CDC25", "setting": "distance to Abp1 bait with CDC25 SH3, sheet Fig2C", "value": 21}, {"measurement": "Protein-protein interaction distance between Abp1 SH3-swapped baits, to CTTN", "setting": "distance to Abp1 bait with CTTN SH3, sheet Fig2C", "value": 8.701}, {"measurement": "Protein-protein interaction distance between Abp1 SH3-swapped baits, to CYK3", "setting": "distance to Abp1 bait with CYK3 SH3, sheet Fig2C", "value": 21.68}, {"measurement": "Protein-protein interaction distance between Abp1 SH3-swapped baits, to DBNL", "setting": "distance to Abp1 bait with DBNL SH3, sheet Fig2C", "value": 8.616}, {"measurement": "Protein-protein interaction distance between Abp1 SH3-swapped baits, to FUS1", "setting": "distance to Abp1 bait with FUS1 SH3, sheet Fig2C", "value": 12.53}, {"measurement": "Protein-protein interaction distance between Abp1 SH3-swapped baits, to HCLS1", "setting": "distance to Abp1 bait with HCLS1 SH3, sheet Fig2C", "value": 12.36}, {"measurement": "Protein-protein interaction distance between Abp1 SH3-swapped baits, to HOF1", "setting": "distance to Abp1 bait with HOF1 SH3, sheet Fig2C", "value": 26.74}, {"measurement": "Protein-protein interaction distance between Abp1 SH3-swapped baits, to HSE1", "setting": "distance to Abp1 bait with HSE1 SH3, sheet Fig2C", "value": 7.847}, {"measurement": "Protein-protein interaction distance between Abp1 SH3-swapped baits, to LSB1", "setting": "distance to Abp1 bait with LSB1 SH3, sheet Fig2C", "value": 16.11}, {"measurement": "Protein-protein interaction distance between Abp1 SH3-swapped baits, to LSB3", "setting": "distance to Abp1 bait with LSB3 SH3, sheet Fig2C", "value": 16.12}, {"measurement": "Protein-protein interaction distance between Abp1 SH3-swapped baits, to MYO3", "setting": "distance to Abp1 bait with MYO3 SH3, sheet Fig2C", "value": 14.63}, {"measurement": "Protein-protein interaction distance between Abp1 SH3-swapped baits, to MYO5", "setting": "distance to Abp1 bait with MYO5 SH3, sheet Fig2C", "value": 14.33}, {"measurement": "Protein-protein interaction distance between Abp1 SH3-swapped baits, to NBP2", "setting": "distance to Abp1 bait with NBP2 SH3, sheet Fig2C", "value": 10.48}, {"measurement": "Protein-protein interaction distance between Abp1 SH3-swapped baits, to PEX13", "setting": "distance to Abp1 bait with PEX13 SH3, sheet Fig2C", "value": 13.22}, {"measurement": "Protein-protein interaction distance between Abp1 SH3-swapped baits, to PIN3", "setting": "distance to Abp1 bait with PIN3 SH3, sheet Fig2C", "value": 13.58}, {"measurement": "Protein-protein interaction distance between Abp1 SH3-swapped baits, to RVS167", "setting": "distance to Abp1 bait with RVS167 SH3, sheet Fig2C", "value": 11.58}, {"measurement": "Protein-protein interaction distance between Abp1 SH3-swapped baits, to SDC25", "setting": "distance to Abp1 bait with SDC25 SH3, sheet Fig2C", "value": 29.16}, {"measurement": "Protein-protein interaction distance between Abp1 SH3-swapped baits, to SHO1", "setting": "distance to Abp1 bait with SHO1 SH3, sheet Fig2C", "value": 8.152}, {"measurement": "Protein-protein interaction distance between Abp1 SH3-swapped baits, to SLA1-1", "setting": "distance to Abp1 bait with SLA1-1 SH3, sheet Fig2C", "value": 23.94}, {"measurement": "Protein-protein interaction distance between Abp1 SH3-swapped baits, to SLA1-2", "setting": "distance to Abp1 bait with SLA1-2 SH3, sheet Fig2C", "value": 13.51}, {"measurement": "Protein-protein interaction distance between Abp1 SH3-swapped baits, to SLA1-3", "setting": "distance to Abp1 bait with SLA1-3 SH3, sheet Fig2C", "value": 15.75}, {"measurement": "Protein-protein interaction distance between Abp1 SH3-swapped baits, to YSC84", "setting": "distance to Abp1 bait with YSC84 SH3, sheet Fig2C", "value": 16.61}, {"measurement": "PPIs gained by Abp1 - SH3-dependent PPIs gained by Abp1", "setting": "[1]", "value": 1}, {"measurement": "SH3-dependent PPIs - SH3-dependent PPIs gained by Abp1", "setting": "[1]", "value": 2}, {"measurement": "SH3-dependent PPIs gained by Abp1", "setting": "number of PPIs, Abp1 SH3-swapped with the listed SH3, DHFR-PCA, Fig2D,S2F", "value": 1}]}]}
